According to patent publication US20230250154A1 (CYTONICS, published 2023):
Read-outs that look alike come from different tables or passages of the source.

B1: Variant A2M, bait region SEQ ID NO 129 (other)
chain: SVSGKPQYMVLVPSLLHTETTEKGCVLLSYLNETVTVSASLESVRGNRSLFTDLEAENDVLHCVAFAVPKSSSNEEVMFLTVQVKGPTQEFKKRTTVMVKNEDSLVFVQTDKSIYKPGQTVKFRVVSMDENFHPLNELIPLVYIQDPKGNRIAQWQSFQLEGGLKQFSFPLSSEPFQGSYKVVVQKKSGGRTEHPFTVEEFVLPKFEVQVTVPKIITILEEEMNVSVCGLYTYGKPVPGHVTVSICRKYSDASDCHGEDSQAFCEKFSGQLNSHGCFYQQVKTKVFQLKRKEYEMKLHTEAQIQEEGTVVELTGRQSSEITRTITKLSFVKVDSHFRQGIPFFGQVRLVDGKGVPIPNKVIFIRGNEANYYSNATTDEHGLVQFSINTTNVMGTSLTVRVNYKDRSPCYGYQWVSEEHEEAHHTAYLVFSPSKSFVHLEPMSHELPCGHTQTVQAHYILNGGTLLGLKKLSFYYLIMAKGGIVRTGTHGLLVKQEDMKGHFSISIPVKSDIAPVARLLIYAVLPTGDVIGDSAKYDVENCLANKVDLSFSPSQSLPASHAHLRVTAAPQSVCALRAVDQSVLLMKPDAELSASSVYNLLPEKDLTGFPGPLNDQDDEDCINRHNVYINGITYTPVSSTNEKDMYSFLEDMGLKAFTNSKIRKPKMCPQLEQYEMHGPEAIPMSIPTEGEGEGEGIPENFFGVSEDLVVQIVEEPHTKLRKYFPETWIWDLVVVNSAGVAEVGVTVPDTITEWKAGAFCLSEDAGLGISSTASLRAFQPFFVELTMPYSVIRGEAFTLKATVLNYLPKCIRVSVQLEASPAFLAVPVEKEQAPHCICANGRQTVSWAVTPKSLGNVNFTVSAEALESQELCGTEVPSVPEHGRKDTVIKPLLVEPEGLEKETTFNSLLCPSGGEVSEELSLKLPPNVVEESARASVSVLGDILGSAMQNTQNLLQMPYGCGEQNMVLFAPNIYVLDYLNETQQLTPEIKSKAIGYLNTGYQRQLNYKHYDGSYSTFGERYGRNQGNTWLTAFVLKTFAQARAYIFIDEAHITQALIWLSQRQKDNGCFRSSGSLLNNAIKGGVEDEVTLSAYITIALLEIPLTVTHPVVRNALFCLESAWKTAQEGDHGSHVYTKALLAYAFALAGNQDKRKEVLKSLNEEAVKKDNSVHWERPQKPKAPVGHFYEPQAPSAEVEMTSYVLLAYLTAQPAPTSEDLTSATNIVKWITKQQNAQGGFSSTQDTVVALHALSKYGAATFTRTGKAAQVTIQSSGTFSSKFQVDNNNRLLLQQVSLPELPGEYSMKVTGEGCVYLQTSLKYNILPEKEEFPFALGVQTLPQTCDEPKAHTSFQISLSVSYTGSRSASNMAIVDVKMVSGFIPLKPTVKMLERSNHVSRTEVSSNHVLIYLDKVSNQTLSLFFTVLQDVPVRDLKPAIVKVYDYYETDEFAIAEYNAPCSKDLGNADYKDDDDKGASHHHHHH
B2: Variant A2M, bait region SEQ ID NO 15 (other)
chain: SVSGKPQYMVLVPSLLHTETTEKGCVLLSYLNETVTVSASLESVRGNRSLFTDLEAENDVLHCVAFAVPKSSSNEEVMFLTVQVKGPTQEFKKRTTVMVKNEDSLVFVQTDKSIYKPGQTVKFRVVSMDENFHPLNELIPLVYIQDPKGNRIAQWQSFQLEGGLKQFSFPLSSEPFQGSYKVVVQKKSGGRTEHPFTVEEFVLPKFEVQVTVPKIITILEEEMNVSVCGLYTYGKPVPGHVTVSICRKYSDASDCHGEDSQAFCEKFSGQLNSHGCFYQQVKTKVFQLKRKEYEMKLHTEAQIQEEGTVVELTGRQSSEITRTITKLSFVKVDSHFRQGIPFFGQVRLVDGKGVPIPNKVIFIRGNEANYYSNATTDEHGLVQFSINTTNVMGTSLTVRVNYKDRSPCYGYQWVSEEHEEAHHTAYLVFSPSKSFVHLEPMSHELPCGHTQTVQAHYILNGGTLLGLKKLSFYYLIMAKGGIVRTGTHGLLVKQEDMKGHFSISIPVKSDIAPVARLLIYAVLPTGDVIGDSAKYDVENCLANKVDLSFSPSQSLPASHAHLRVTAAPQSVCALRAVDQSVLLMKPDAELSASSVYNLLPEKDLTGFPGPLNDQDDEDCINRHNVYINGITYTPVSSTNEKDMYSFLEDMGLKAFTNSKIRKPKMCPQLEHGPEGEGEGEGIPENFFGVSEDLVVQISELEGRGSRYLTAVEEPHTKLRKYFPETWIWDLVVVNSAGVAEVGVTVPDTITEWKAGAFCLSEDAGLGISSTASLRAFQPFFVELTMPYSVIRGEAFTLKATVLNYLPKCIRVSVQLEASPAFLAVPVEKEQAPHCICANGRQTVSWAVTPKSLGNVNFTVSAEALESQELCGTEVPSVPEHGRKDTVIKPLLVEPEGLEKETTFNSLLCPSGGEVSEELSLKLPPNVVEESARASVSVLGDILGSAMQNTQNLLQMPYGCGEQNMVLFAPNIYVLDYLNETQQLTPEIKSKAIGYLNTGYQRQLNYKHYDGSYSTFGERYGRNQGNTWLTAFVLKTFAQARAYIFIDEAHITQALIWLSQRQKDNGCFRSSGSLLNNAIKGGVEDEVTLSAYITIALLEIPLTVTHPVVRNALFCLESAWKTAQEGDHGSHVYTKALLAYAFALAGNQDKRKEVLKSLNEEAVKKDNSVHWERPQKPKAPVGHFYEPQAPSAEVEMTSYVLLAYLTAQPAPTSEDLTSATNIVKWITKQQNAQGGFSSTQDTVVALHALSKYGAATFTRTGKAAQVTIQSSGTFSSKFQVDNNNRLLLQQVSLPELPGEYSMKVTGEGCVYLQTSLKYNILPEKEEFPFALGVQTLPQTCDEPKAHTSFQISLSVSYTGSRSASNMAIVDVKMVSGFIPLKPTVKMLERSNHVSRTEVSSNHVLIYLDKVSNQTLSLFFTVLQDVPVRDLKPAIVKVYDYYETDEFAIAEYNAPCSKDLGNADYKDDDDKGASHHHHHH

How the values were obtained:
Test in all cases: cell-based or functional assay
MMP1 [1] = molecular target: T1, MMP1 (human, UniProt P03956 100-469, limits assumed)
T1 sequence (looked up): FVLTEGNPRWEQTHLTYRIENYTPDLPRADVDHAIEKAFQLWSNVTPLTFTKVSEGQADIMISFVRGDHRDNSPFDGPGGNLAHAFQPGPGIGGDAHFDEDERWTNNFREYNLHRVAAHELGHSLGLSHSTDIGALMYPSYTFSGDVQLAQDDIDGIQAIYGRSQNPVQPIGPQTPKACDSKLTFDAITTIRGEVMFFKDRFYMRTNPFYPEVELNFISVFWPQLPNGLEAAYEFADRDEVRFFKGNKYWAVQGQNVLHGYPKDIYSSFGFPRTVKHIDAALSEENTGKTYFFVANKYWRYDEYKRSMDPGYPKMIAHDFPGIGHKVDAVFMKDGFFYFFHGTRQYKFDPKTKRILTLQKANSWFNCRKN

MMP2 [2] = molecular target: T2, MMP2 (human, UniProt P08253 110-660, limits assumed)
T2 sequence (looked up): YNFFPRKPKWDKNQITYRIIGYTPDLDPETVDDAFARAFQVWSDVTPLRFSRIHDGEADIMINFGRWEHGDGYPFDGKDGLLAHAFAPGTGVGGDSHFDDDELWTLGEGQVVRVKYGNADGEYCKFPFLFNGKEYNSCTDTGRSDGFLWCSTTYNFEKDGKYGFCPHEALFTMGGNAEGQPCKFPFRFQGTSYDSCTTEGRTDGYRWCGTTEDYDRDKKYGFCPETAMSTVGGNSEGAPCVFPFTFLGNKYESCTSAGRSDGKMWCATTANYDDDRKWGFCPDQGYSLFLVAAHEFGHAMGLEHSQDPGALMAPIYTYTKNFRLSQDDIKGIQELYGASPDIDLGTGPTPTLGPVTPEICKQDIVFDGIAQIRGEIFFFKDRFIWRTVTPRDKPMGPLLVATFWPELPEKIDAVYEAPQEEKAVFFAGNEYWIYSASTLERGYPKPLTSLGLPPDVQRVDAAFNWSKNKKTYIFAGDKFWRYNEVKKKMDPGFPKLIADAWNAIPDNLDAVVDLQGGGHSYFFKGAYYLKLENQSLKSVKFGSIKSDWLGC

Elastase [3] = molecular target: Elastase
MMP8 = MMP8 (human, UniProt P22894 101-467, limits assumed)
Cathepsin G = molecular target: T3, Cathepsin G (UniProt P08311 21-244)
T3 sequence (looked up): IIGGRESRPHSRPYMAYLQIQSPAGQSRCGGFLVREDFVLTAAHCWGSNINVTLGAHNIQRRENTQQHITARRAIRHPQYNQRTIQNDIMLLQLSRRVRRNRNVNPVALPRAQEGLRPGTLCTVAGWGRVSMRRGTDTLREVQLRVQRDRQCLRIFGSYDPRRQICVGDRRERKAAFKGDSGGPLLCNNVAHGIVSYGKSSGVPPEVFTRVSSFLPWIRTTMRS

MMP7 = molecular target: T4, MMP7 (UniProt P09237 95-267, limits assumed)
T4 sequence (looked up): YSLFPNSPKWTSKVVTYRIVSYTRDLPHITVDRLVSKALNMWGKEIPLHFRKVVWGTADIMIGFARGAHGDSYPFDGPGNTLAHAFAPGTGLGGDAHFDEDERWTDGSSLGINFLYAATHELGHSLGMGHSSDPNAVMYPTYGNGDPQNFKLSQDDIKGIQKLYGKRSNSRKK

MMP3 = MMP3 (human, UniProt P08254 100-477, limits assumed)
ADAMTS5 = molecular target: T5, ADAMTS5 (human, UniProt Q9UNA0 262-622, limits assumed)
T5 sequence (looked up): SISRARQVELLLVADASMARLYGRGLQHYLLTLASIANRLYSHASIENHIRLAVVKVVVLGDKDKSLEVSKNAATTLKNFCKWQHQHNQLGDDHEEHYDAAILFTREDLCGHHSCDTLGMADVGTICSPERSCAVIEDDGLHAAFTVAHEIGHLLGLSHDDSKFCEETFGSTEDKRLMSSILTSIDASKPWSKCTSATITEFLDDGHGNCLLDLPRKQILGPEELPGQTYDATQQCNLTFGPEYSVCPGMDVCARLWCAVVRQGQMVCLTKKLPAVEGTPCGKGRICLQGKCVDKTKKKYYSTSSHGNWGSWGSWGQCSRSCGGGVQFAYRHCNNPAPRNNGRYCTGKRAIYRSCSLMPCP

MMP1 [4] = molecular target: T1, MMP1; remark: listed apart in the source
MMP13 = MMP13 (human, UniProt P45452 104-471, limits assumed)
Elastase [5] = molecular target: Elastase; remark: listed apart in the source
ADAMTS4 = molecular target: T6, ADAMTS4 (human, UniProt O75173 213-685, limits assumed)
T6 sequence (looked up): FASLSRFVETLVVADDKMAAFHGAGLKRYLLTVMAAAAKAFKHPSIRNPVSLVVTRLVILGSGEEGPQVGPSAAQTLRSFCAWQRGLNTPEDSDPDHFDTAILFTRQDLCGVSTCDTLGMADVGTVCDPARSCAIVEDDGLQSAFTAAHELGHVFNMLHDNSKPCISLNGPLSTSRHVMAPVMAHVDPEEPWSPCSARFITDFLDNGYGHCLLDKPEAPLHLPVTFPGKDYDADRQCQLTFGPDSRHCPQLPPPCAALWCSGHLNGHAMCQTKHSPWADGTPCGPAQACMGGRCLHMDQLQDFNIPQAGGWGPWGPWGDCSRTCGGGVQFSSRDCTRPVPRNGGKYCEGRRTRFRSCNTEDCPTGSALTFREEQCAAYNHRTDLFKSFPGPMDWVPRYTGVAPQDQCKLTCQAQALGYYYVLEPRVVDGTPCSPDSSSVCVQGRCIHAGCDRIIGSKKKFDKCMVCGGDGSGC

MMP2 [6] = molecular target: T2, MMP2; remark: listed apart in the source
MMP9 = MMP9 (human, UniProt P14780 107-707, limits assumed)
Sequence of MMP9 (P14780 107-707 limits assumed): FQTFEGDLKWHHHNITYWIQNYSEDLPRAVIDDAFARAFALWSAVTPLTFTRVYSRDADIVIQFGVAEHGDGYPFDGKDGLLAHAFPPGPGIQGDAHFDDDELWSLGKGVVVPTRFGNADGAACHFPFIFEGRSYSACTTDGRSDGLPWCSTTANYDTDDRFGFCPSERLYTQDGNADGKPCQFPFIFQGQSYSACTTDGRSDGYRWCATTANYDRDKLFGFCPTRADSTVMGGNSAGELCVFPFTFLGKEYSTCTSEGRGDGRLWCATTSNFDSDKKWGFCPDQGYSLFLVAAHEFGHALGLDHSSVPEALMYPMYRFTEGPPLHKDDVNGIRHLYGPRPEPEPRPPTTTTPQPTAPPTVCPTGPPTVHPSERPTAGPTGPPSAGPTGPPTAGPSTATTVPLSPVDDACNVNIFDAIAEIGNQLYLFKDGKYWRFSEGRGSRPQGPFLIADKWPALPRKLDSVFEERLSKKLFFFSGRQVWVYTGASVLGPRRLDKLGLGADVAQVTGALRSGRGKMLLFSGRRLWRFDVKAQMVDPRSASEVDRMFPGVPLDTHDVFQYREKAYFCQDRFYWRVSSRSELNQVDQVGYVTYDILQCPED

Sequence of MMP8 (P22894 101-467 limits assumed): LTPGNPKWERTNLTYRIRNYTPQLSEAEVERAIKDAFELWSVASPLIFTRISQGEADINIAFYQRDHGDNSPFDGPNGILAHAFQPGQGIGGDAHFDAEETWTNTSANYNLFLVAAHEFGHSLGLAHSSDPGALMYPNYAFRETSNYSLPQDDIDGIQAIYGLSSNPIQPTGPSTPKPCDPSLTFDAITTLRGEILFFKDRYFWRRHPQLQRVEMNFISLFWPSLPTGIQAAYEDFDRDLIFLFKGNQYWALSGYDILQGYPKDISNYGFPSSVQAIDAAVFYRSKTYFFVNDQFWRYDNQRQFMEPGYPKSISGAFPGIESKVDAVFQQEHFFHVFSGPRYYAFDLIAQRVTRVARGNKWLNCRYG
Sequence of MMP3 (P08254 100-477 limits assumed): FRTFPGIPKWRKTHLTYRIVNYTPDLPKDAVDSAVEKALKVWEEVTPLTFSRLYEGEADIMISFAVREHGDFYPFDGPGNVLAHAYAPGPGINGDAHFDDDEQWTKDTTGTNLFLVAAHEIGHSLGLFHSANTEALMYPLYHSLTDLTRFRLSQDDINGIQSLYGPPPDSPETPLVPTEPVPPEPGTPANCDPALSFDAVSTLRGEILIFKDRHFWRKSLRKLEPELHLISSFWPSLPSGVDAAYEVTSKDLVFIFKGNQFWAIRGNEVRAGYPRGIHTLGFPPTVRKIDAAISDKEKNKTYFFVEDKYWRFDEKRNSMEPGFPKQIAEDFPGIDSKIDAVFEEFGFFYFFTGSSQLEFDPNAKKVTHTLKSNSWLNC

Binder | Protease Inhibition (% of WT) (MMP1 [1]) | Protease Inhibition (% of WT) (MMP2 [2]) | Protease Inhibition (% of WT) (Elastase [3]) | Protease Inhibition (% of WT) (MMP8) | Protease Inhibition (% of WT) (Cathepsin G) | Protease Inhibition (% of WT) (MMP7) | Protease Inhibition (% of WT) (MMP3) | Protease Inhibition (% of WT) (ADAMTS5) | Protease Inhibition (% of WT) (MMP1 [4]) | Protease Inhibition (% of WT) (MMP13) | Protease Inhibition (% of WT) (Elastase [5]) | Protease Inhibition (% of WT) (ADAMTS4) | Protease Inhibition (% of WT) (MMP2 [6]) | Protease Inhibition (% of WT) (MMP9)
B1 | 200 % of WT | 20 % of WT | 75 % of WT |  |  |  |  |  |  |  |  |  |  | 
B2 |  |  |  | 77 % of WT | 139 % of WT | 157 % of WT | 40 % of WT | 183 % of WT | 116 % of WT | 143 % of WT | 115 % of WT | 83 % of WT | 59 % of WT | 41 % of WT
